Consider seven molecules from patent publication US20230105029A1 (CHIA TAI TIANQING PHARMACEUTICAL GROUP, published 2023).

Read-outs that look alike come from different tables or passages of the source.

Experiment [1] concerns the target T1, human IL4Rα expressed on HEK293T-IL4Rα-STAT6-STAT6LUC-LB2 cells (human, UniProt P24394 26-825). The experiment can be described thus: cell-based or functional assay.
In experiment [2] the target is T2, cynomolgus monkey IL4Rα-his protein (cynomolgus monkey, UniProt A0A2K5V580 33-239).
T2 construct: Bought protein; also called Cynomolgus IL4Rα; Cyno-IL4Rα-his; not shown: his tag
The experiment can be described thus: indirect ELISA on coated cynomolgus IL4Rα-his. As for the experimental part:
The anti-IL4Rα antibodies' cross-reaction with cynomolgus IL4Rα proteins or cal-IL4Rα-his proteins were measured. Briefly, 96-well micro plates were coated with 2 μg/ml cynomolgus IL4Rα-his protein (Sino biological inc., Cat #90897—C08H) or 0.2 μg/ml cal-IL4Rα-his protein (Custom made by Sino biological inc., Cat #BAX2) in carbonate/bicarbonate buffer (pH 9.6), 100 μl/well, for 2 hours at 37° C. ELISA plates were washed once with wash buffer (PBS+0.05% w/v Tween-20, PBST) and then blocked with 200 μl/well blocking buffer (5% w/v non-fatty milk in PBST) for 2 hours at 37° C. Plates were washed again and incubated with 100 μl/well serially diluted anti-IL4Rα antibodies of the disclosure or controls (0.004-66.7 nM, 5-fold serial dilution in 2.5% w/v non-fatty milk in PBST, starting at 66.7 nM) for 40 minutes at 37° C. […] After a final wash, plates were incubated with 100 μl/well TMB (Innoreagents). The reaction was stopped 3-10 minutes later at 25° C. with 50 μl/well 1M H₂SO₄, and the absorbance was read at 450 nm. Data was analyzed using Graphpad Prism software and EC₅₀ values were reported.

For experiment [3], the target named is T3, human IL4Rα expressed on 293F-IL4Rα cells (human, UniProt P24394 26-825).
T3 construct: whole, on cells; also called cell surface human IL4Rα
The experiment can be described thus: flow cytometry on 293F-IL4Rα cells, blocked ligand biotin human IL4.

The target in experiment [4] is T4, recombinant human IL4Rα-his protein (in house made) (human, UniProt P24394 26-232, limits assumed).
T4 construct: also called Human IL4Ra-his
The experiment can be described thus: competitive ELISA, blocks biotin-IL4 binding to coated IL4Rα-his.

Experiment [5] addresses T3, human IL4Rα expressed on 293F-IL4Rα …. Nature of the experiment: flow cytometry on 293F-IL4Rα cells, blocked ligand biotin human IL4. As for the experimental part: Then, 1×10⁵ cells per well in 96 well-plates were incubated in 100 μL of the anti-IL4Rα antibodies or controls of various concentrations (starting at 80 nM with a 4-fold serial dilution) in FACS buffer for 40 minutes on ice. The plates were washed twice with FACS buffer, and added and incubated for 40 minutes at 4° C. in dark with 100 μl/well 1.67 nM biotin-labeled human IL4 protein (Sino biological inc., Cat #11846-HNAE). The plates were washed twice with FACS buffer, and then added and incubated for 40 minutes at 4° C. in dark with 100 μl/well R-Phycoerythrin Streptavidin (1:500 dilution in FACS buffer, Jackson Immunoresearch, Cat #016-110-084). Cells were washed twice and resuspended in FACS buffer. Fluorescence was measured using a Becton Dickinson FACS Canto II-HTS equipment. Data was analyzed using Graphpad Prism software and IC₅₀ values were reported.
The source holds these as a separate data set.

For experiment [6], the target named is T4, recombinant human IL4Rα-his protein (in …). The experiment can be described thus: capture ELISA: antibody captured on anti-IgG Fc plate, biotin human IL4Rα-his detected.
Experiment [7] has as its target T3, human IL4Rα expressed on 293F-IL4Rα …. The experiment can be described thus: flow cytometry on 293F-IL4Rα cells.
Experiment [8] concerns the target T1, human IL4Rα expressed on …. The experiment can be described thus: cell-based or functional assay. This is another data set of the same source.
The target in experiment [9] is T5, marmoset monkey IL4Rα-his protein (marmoset monkey).
T5 construct: Custom made by Sino biological; no cleavage site stated; also called cal-IL4Rα-his; Cal-IL4Rα
T5 chain: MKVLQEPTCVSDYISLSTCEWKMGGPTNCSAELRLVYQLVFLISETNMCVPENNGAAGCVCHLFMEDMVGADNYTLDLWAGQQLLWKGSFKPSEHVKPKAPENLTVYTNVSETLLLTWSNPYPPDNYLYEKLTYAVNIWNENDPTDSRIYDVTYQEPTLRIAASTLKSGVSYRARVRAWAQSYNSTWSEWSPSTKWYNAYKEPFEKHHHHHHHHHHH
Nature of the experiment: indirect ELISA on coated cal-IL4Rα-his.

Experiment [10] concerns the target T4, recombinant human IL4Rα-his protein (in …). The experiment can be described thus: competitive ELISA: coated human IL4Rα-his, blocked ligand biotin human IL4.
Experiment [11] has as its target T2, cynomolgus monkey IL4Rα-his protein. Nature of the experiment: indirect ELISA, coated cyno IL4Rα-his.
Experiment [12] deals with T1, human IL4Rα expressed on …. Nature of the experiment: cell-based or functional assay. The source holds these as a separate data set.
The target in experiment [13] is T5, marmoset monkey IL4Rα-his protein. The experiment can be described thus: indirect ELISA on coated cal-IL4Rα-his.

B1: mouse antibody B8G11F2B7G5E8 (antibody, V domains shown)
VH: EVQLQQSGADLVRPGASVKLSCTASGFNIKDTYMHWVKQRPEQGLEWVGRIDPTNGYTIYASKFQGKATITADTSSNTAYMQLSSLTSGDTAVYHCVSRRPWFAYWGQGTLVTVSA
VL: DILMTQTPLSLPVSLGAQASISCRSSQSIVHSNGNTYLEWYLQKPGQSPKLLIYKVTNRFSGVPDRFSGSGSGTDFTLKISRVEAEDLGIYYCFQGSHVPYTFGGGTKLEIK
notes: Mouse hybridoma mAb; also called Mouse B8G11F2B7G5E8; mAb B8G11F2B7G5E8
B1: the “Inhibition on IL4 induced STAT6 phosphorylation (IC50, nM)” value in experiment [1] stood at 0.26 nM; in experiment [8], 0.23 nM. For the same molecule, the “Inhibition on IL13 induced STAT6 phosphorylation (IC50, nM)” value is 0.6 nM in [1] and 0.47 nM in experiment [8]. Moreover, the EC50 in [2] amounted to 0.291 nM; in [6], 0.213 nM; in [7], 0.412 nM; in experiment [9], 0.873 nM; in [11], 0.5 nM. Moreover, the IC50 in [3] is 0.5 nM; in [4] it was 1 nM; in experiment [5], 0.804 nM; in experiment [10], 1.64 nM.

B2: chimeric antibody B8G11F2B7G5E8 (antibody, human IgG4 S228P, kappa, V domains shown)
VH: EVQLQQSGADLVRPGASVKLSCTASGFNIKDTYMHWVKQRPEQGLEWVGRIDPTNGYTIYASKFQGKATITADTSSNTAYMQLSSLTSGDTAVYHCVSRRPWFAYWGQGTLVTVSA
VL: DILMTQTPLSLPVSLGAQASISCRSSQSIVHSNGNTYLEWYLQKPGQSPKLLIYKVTNRFSGVPDRFSGSGSGTDFTLKISRVEAEDLGIYYCFQGSHVPYTFGGGTKLEIKR
notes: Mouse variable domains on human IgG4/kappa; also called Chimeric B8G11F2B7G5E8; chB8G11F2B7G5E8
For the molecule B2, the “Inhibition on IL4 induced STAT6 phosphorylation (IC50, nM)” value in [1] was determined as 0.26 nM; in [12], 0.45 nM. Further, the “Inhibition on IL13 induced STAT6 phosphorylation (IC50, nM)” value stood at 0.76 nM in experiment [1] and 0.5 nM in experiment [12]. The IC50 in experiment [3] came to 0.364 nM; in experiment [4], 1.42 nM; in experiment [10], 1.82 nM. Also, the EC50 in experiment [6] is 0.319 nM; in experiment [7], 0.775 nM; in [9], 1.01 nM; in experiment [11], 1.06 nM.

B3: mouse antibody B1D2F7D3B5 (antibody, V domains shown)
VH: EVKLVESGGGLVKPGGSLKLSCAASGFTFSSYAMSWVRQTPEKRLEWVASISSGDSTYYLDSVKGRFTISRDNAMNILYLQMSSLRSEDTAVYYCERSGGSAPYWGQGTLVSVSA
VL: QIVLTQSPAIMSASPGEMVTISCSASSSVSYMYWYQQKPGSSPKPWIYRTSNLASGVPARFSGSGSGTSYSLTISSMEAEDAATYYCQQYHSFPLTFGAGTKLELK
notes: Mouse hybridoma mAb
B3 gave an IC50 in experiment [5] of 0.787 nM. Also, in experiment [8], the “Inhibition on IL4 induced STAT6 phosphorylation (IC50, nM)” value turned out to be 0.17 nM and the “Inhibition on IL13 induced STAT6 phosphorylation (IC50, nM)” value is 0.48 nM.

B4: mouse antibody B9D1D11F8D8 (antibody, V domains shown)
VH: EVKLVESGGGLVKPGGSLKLSCAASGFTFSSYAMSWVRQTPEKRLEWVASISSGDSTYYLDSVKGRFTISRDNARNILYLQVSSLRSEDTAMYYCERSGGSAPYWGQGTLVTVSA
VL: QIVLTQSPAIMSASPGDMVTISCSASSSVNYMYWYQQKPGSSPKPWIYRTSNLASGVPARFSGSGSGTSYSLTISSMEAEDAATYYCQQYHSFPLTFGAGTKLELK
notes: Mouse hybridoma mAb
B4 yielded an IC50 in [5] of 0.748 nM. For the same molecule, in experiment [8], the “Inhibition on IL4 induced STAT6 phosphorylation (IC50, nM)” value is 0.23 nM and the “Inhibition on IL13 induced STAT6 phosphorylation (IC50, nM)” value was determined as 0.36 nM.

B5: mouse antibody C2C1A1A1 (antibody, V domains shown)
VH: EVQLVESGGGLVQPGGSLKLSCAASGFTFSTYGMSWVRQTPDKRLELVATINSNGGSTSYPDSVKGRFTISRDNAKNTLYLQMSSLKSEDTAMFYCARFFRFRNAMDYWGQGTSVTVSS
VL: DIQMTQSPASLSASVGETVTITCRTSENIYSYLAWYQQKQGKSPQFLVYNAKTLAEGVPSRFSGSGSGTQFSLNINSLQSEDFGSYYCQHYYGPPTWTFGGGTKLEIK
notes: Mouse hybridoma mAb; also called Mouse C2C1A1A1
Consider B5, for which the “Inhibition on IL4 induced STAT6 phosphorylation (IC50, nM)” value in experiment [1] came to 0.19 nM; in [8] it was 0.16 nM. Also, the “Inhibition on IL13 induced STAT6 phosphorylation (IC50, nM)” value in experiment [1] stood at 0.27 nM; in experiment [8] it was 0.23 nM. For the same molecule, the EC50 worked out at 0.329 nM in [2], 0.574 nM in [13] and 0.307 nM in [7]. The IC50 in experiment [5] amounted to 0.44 nM; in [10] it was 1.89 nM.

B6: chimeric antibody C2C1A1A1 (antibody, human IgG4 S228P, kappa, V domains shown)
VH: EVQLVESGGGLVQPGGSLKLSCAASGFTFSTYGMSWVRQTPDKRLELVATINSNGGSTSYPDSVKGRFTISRDNAKNTLYLQMSSLKSEDTAMFYCARFFRFRNAMDYWGQGTSVTVSS
VL: DIQMTQSPASLSASVGETVTITCRTSENIYSYLAWYQQKQGKSPQFLVYNAKTLAEGVPSRFSGSGSGTQFSLNINSLQSEDFGSYYCQHYYGPPTWTFGGGTKLEIKR
notes: Mouse variable domains on human IgG4/kappa; also called Chimeric C2C1A1A1; chC2C1A1A1
For the molecule B6, the “Inhibition on IL4 induced STAT6 phosphorylation (IC50, nM)” value was 0.27 nM in experiment [1] and 0.26 nM in experiment [12]. Besides, the “Inhibition on IL13 induced STAT6 phosphorylation (IC50, nM)” value in experiment [1] came out at 0.56 nM; in experiment [12], 0.39 nM. Also, the results for the EC50 in experiment [13], in experiment [7] and in experiment [11] were 0.623 nM, 0.63 nM and 0.6 nM, respectively. Also, the IC50 in experiment [4] is 2.46 nM; in experiment [10] it was 3.12 nM.

B7: mouse antibody C2B2F7B7 (antibody, V domains shown)
VH: EVQLVESGGGLVQPGGSLKLSCAASGFTFSTYGMSWVRQTPDKRLELVATINSNGGSTNYPDSVKGRFTISRDNAKNTLYLQMSSLKSEDTAMYYCARFFRIRNAMDYWGQGTSVTVSS
VL: DIQMTQSPASLSASVGETVTITCRASENIYSYLAWYQQKQGKSPQFLVYNAKTLAEGVPSRFSGSGSGTQFSLKINSLQPEDFGSYYCQHYYGTPTWTFGGGTKLEIK
notes: Mouse hybridoma mAb
As for B7, in experiment [2], a half-maximal effect (EC50) was put at 108 nM. In experiment [5], the IC50 was 0.397 nM. In addition, in experiment [8], the “Inhibition on IL4 induced STAT6 phosphorylation (IC50, nM)” value came to 0.17 nM and the “Inhibition on IL13 induced STAT6 phosphorylation (IC50, nM)” value turned out to be 0.31 nM.
